From patent US20150224182A1 (UNIVERSITY OF VIRGINIA PATENT FOUNDATION, published 2015)
One block for each binder: values may come before it. Non-standard residues stand in square brackets, D forms with d. No end group written: not given here. pT = C[C@@H](OP(=O)(O)O)[C@H](N)C(=O)O; pS = N[C@@H](COP(=O)(O)O)C(=O)O

How the values were obtained:
HLA-A*0201 [1] = target: T1, HLA-A*0201 (human); test: HLA-A2 binding affinity, method not described
T1 construct: also called HLA-A2

HLA-A*0201 [2] = target: T1, HLA-A*0201; test: HLA-A2 eluate MS; CLL2; 1 means <1 copy/cell
HLA-A*0201 [3] = target: T1, HLA-A*0201; test: HLA-A2 eluate MS; CLL4; 1 means <1 copy/cell
HLA B*0702 [4] = target: T2, HLA B*0702 (human); test: MS of peptides eluted from HLA; L/M column: empty
T2 construct: Class I MHC molecule of the cells from which the associated phosphopeptides were detected; also called HLA-B7

HLA-B*0702 = target: T3, HLA-B*0702 (human); test: HLA-B7 eluate MS; AML1; 3 means 6-25 copies/cell
T3 construct: also called HLA-B7

HLA B*0702 [5] = target: T2, HLA B*0702; test: MS of peptides eluted from HLA; L/M column: M
HLA-A*0201 [6] = target: T1, HLA-A*0201; test: competition with iodinated [..] for purified HLA-A*0201 plus β2M, capture on W6/32 plates
HLA-A*0201 [7] = target: T1, HLA-A*0201; test: HLA-A2 binding affinity
HLA-A*0201 [8] = target: T1, HLA-A*0201; test: competition binding assay on purified HLA-A*0201

Binder: KAK[pS]PAPGL [NCOR2 phosphopeptide KAKsPAPGL]
binding result (HLA-A*0201 [2]): binds

Binder: RPV[pS]PFQEL [RPVsPFQEL]
binding result (HLA B*0702 [4]): binds

Binder: RPA[pS]PAAKL [RPAsPAAKL]
binding result (HLA B*0702 [5]): binds

B1: pS33-βcat(V)30 (YLDsGIHSGV) (peptide)
peptide: YLD[pS]GIHSGV
notes: also called pS33-βcatenin30-39(V); modified phosphopeptide
IC50 (HLA-A*0201 [6]): 0.041 µg/mL | fold enhancement of HLA-A2 binding affinity over pS33-βcatenin30-39 (HLA-A*0201 [7]): ~10 fold | fold higher HLA-A*0201 binding affinity than pS33-βcat30 (HLA-A*0201 [8]): 8 fold

The next lines start with the values.

binding result (HLA-A*0201 [1]): binds
Binder: IMDR[pT]PEKL (also called natural BCAR3pT130) [BCAR3 phosphopeptide IMDRtPEKL]

binding result (HLA-A*0201 [3]): binds
Binder: KMD[pS]FLDMQL [N4BP2 phosphopeptide KMDsFLDMQL]

binding result (HLA-B*0702): binds
Binder: QPR[pS]PGPDYSL [GFI1 phosphopeptide QPRsPGPDYSL]
